Drawing on PMC3753642, this text covers Kd for 4 substances.

Holding throughout (test): EMSA
Conditions in all cases: TNK buffer (composition and pH not in material), 30 C
On the technique in general: A gel shift assay detects complexes by their altered migration in electrophoresis.

The target in data set [1] is Hfq:R16A R16A (Escherichia coli) (UniProt P0A6X3).
Data set [2] has as its target Hfq WT (Escherichia coli) (UniProt P0A6X3).
The target in data set [3] is Hfq TM R16A;R17A;R19D (Escherichia coli) (UniProt P0A6X3).

The Kd is the equilibrium constant for the complex coming apart. Low readings indicate tighter binding, high ones weaker binding. In the case of RprA sRNA, the Kd turned out to be 623 nM in data set [1] and 187 nM in data set [2].
Taken in the same sequence, the figures for ArcZ56 sRNA were 190 nM and 49 nM.
On to DsrA sRNA, for which the figures for the Kd in data set [1], in data set [2] and in data set [3] were 373 nM, 132 nM and 300 nM, respectively.
Consider rpoS323 mRNA leader, for which the figures for the Kd in data set [1] and in data set [2] were 196 nM and 144 nM, respectively.
